Test results as given in patent publication US20240400703A1 (Genmab, published 2024).
“And” between values parts separate entries of the source, which are not always exact repeats. Identical values can stand only once.

Key:
[1] = molecular target: T1, human OX40 expressed on cells (human, UniProt P43489 29-277); test: cell-based or functional assay
T1 sequence: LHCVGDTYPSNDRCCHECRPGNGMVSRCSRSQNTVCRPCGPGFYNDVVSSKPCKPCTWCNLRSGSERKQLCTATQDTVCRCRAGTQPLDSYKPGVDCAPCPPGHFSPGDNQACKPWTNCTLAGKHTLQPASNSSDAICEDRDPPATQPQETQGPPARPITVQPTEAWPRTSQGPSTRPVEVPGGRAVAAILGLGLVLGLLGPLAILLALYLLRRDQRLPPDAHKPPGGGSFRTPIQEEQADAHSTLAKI

[2] = molecular target: T2, C1q (from normal human serum) (human, UniProt P02745 23-245; P02746 28-253; P02747 29-245); test: flow cytometry, C1q from 20 % normal human serum on antibody-opsonised activated CD4+ T cells, FITC anti-C1q
T2 construct: also called complement factor C1q
Experimental: Next, cells were washed twice with cold FACS buffer, pelleted, and resuspended in 80 μL FACS buffer supplemented with viability marker TO-PRO™-3 Iodide (Invitrogen, cat. no. T3605; diluted 1:10,000). […] Binding curves were analyzed using nonlinear regression analysis (sigmoidal dose-response with variable slope) using GraphPad Prism software. Binding of OX40 antibodies to the activated T cells was assessed after the incubation step with serial dilutions of antibodies. […] Next, cells were washed twice with cold FACS buffer, pelleted, and resuspended in 80 μL FACS buffer supplemented with viability marker TO-PRO-3 Iodide (diluted 1:10,000). Antibody binding was analyzed by flow cytometry on a BD FACSCelesta Cell Analyzer. Binding curves were analyzed using nonlinear regression analysis (sigmoidal dose-response with variable slope) using GraphPad Prism software.

[3] = molecular target: T1, human OX40 expressed on cells; test: flow cytometry, activated human CD8+ T cells, donor 2
Experimental: (§1) Healthy human donor PBMCs were purified essentially as described in Example 7. The cell concentration was adjusted to 2×10⁶ cells per mL (final concentration) in assay medium and plated in 6-well plates (Greiner, cat. no. 657160). PBMCs were stimulated with 0.3 μg/mL anti-CD3 ([…] Technologies, cat. no. 60011) and 0.5 μg/mL anti-CD28 antibodies (BioLegend, cat. no. 302934) and cultured for two days at 37° C., 5% CO₂. Next, the PBMCs were harvested, counted and brought to a concentration of 2×10⁶ cells per mL in FACS buffer 1 (DPBS with 2% heat-inactivated FBS and 2 mM ethylenediaminetetraacetic acid [EDTA]). […] After 60 min at RT, the cells were prepared for flow cytometric analyses. To this end, the cells were washed twice with 150 μL FACS buffer 1 and 30 μL/well cell-surface antibody mix (Table 9) in FACS buffer 1 containing antibody against human Fcγ antibody (Table 9) and fixable viability dye eFluor780 (1:1,500) was added. The staining procedures were carried out at 4° C. for 15-20 min protected from light. Stained cells were washed twice with 120-150 μL FACS buffer 1 (5 min, 460×g, RT) and resuspended in 60-100 μL FACS buffer 1 for direct flow cytometric analyses. Flow cytometric data were acquired on a FACSymphony A3 and analyzed with FlowJo software.

[4] = molecular target: T1, human OX40 expressed on cells; test: flow cytometry, activated human CD8+ T cells, mean of 3 donors; CD8+ T cells
Experimental: as §1

[5] = molecular target: T1, human OX40 expressed on cells; test: flow cytometry, activated human CD4+ T cells, mean of 3 donors
Experimental: as §1

[6] = molecular target: T1, human OX40 expressed on cells; test: flow cytometry, activated human CD4+ and CD8+ T cells, 2 µg/mL sOX40L
Experimental: Stimulated PBMCs were pelleted, resuspended in FACS buffer 2 (DPBS with 2% heat-inactivated FBS [Sigma-Aldrich, cat. no. F7524] and 2 mM EDTA [Sigma-Aldrich, cat. no. 03690]), and seeded (100,000 cells/well) in round-bottom 96-well plates (VWR International GmbH, cat. no. 734-197). […] Next, cells were washed twice in FACS buffer, and incubated with 30 μL of the antibody panel described in Table 11 diluted in FACS buffer 2 containing 1:1,500 Fixable Viability Stain eFluor 780 at 4° C. for 20 min, protected from light. The cells were subsequently washed twice with 120-150 μL FACS buffer 2 and measured on a BD FACSCelesta flow cytometer using a BD High Throughput sampler and subsequent analysis was done using FlowJo software.

[7] = molecular target: T3, mouse OX40 expressed on ExpiCHO-S cells (mouse, UniProt P47741 20-272); test: flow cytometry, transfected ExpiCHO-S cells, gMFI (PE)
T3 construct: full-length entry; also called OX40mm; wild-type mouse OX40
T3 sequence: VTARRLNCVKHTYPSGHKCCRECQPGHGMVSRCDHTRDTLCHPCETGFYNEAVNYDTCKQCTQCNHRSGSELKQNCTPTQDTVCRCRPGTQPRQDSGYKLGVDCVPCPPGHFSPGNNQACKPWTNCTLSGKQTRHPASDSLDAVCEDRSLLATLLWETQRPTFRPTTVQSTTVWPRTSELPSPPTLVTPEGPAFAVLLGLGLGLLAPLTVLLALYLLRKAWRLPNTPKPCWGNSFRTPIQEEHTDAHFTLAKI

[8] = molecular target: T1, human OX40 expressed on cells; test: flow cytometry, activated human CD4+ T cells, donor 3
Experimental: as §1

[9] = molecular target: T1, human OX40 expressed on cells; test: flow cytometry, activated human CD4+ T cells, donor 1
[10] = molecular target: T4, human FcγRIa expressed on cells (human, UniProt P12314 16-374); test: flow cytometry, FcγRIa-transfected ExpiCHO-S cells, gMFI (PE)
T4 construct: whole, on cells; also called FcγR1a; CD64
Experimental: Data were analyzed using FlowJo software and were visualized using GraphPad Prism.

T4 sequence (P12314 16-374): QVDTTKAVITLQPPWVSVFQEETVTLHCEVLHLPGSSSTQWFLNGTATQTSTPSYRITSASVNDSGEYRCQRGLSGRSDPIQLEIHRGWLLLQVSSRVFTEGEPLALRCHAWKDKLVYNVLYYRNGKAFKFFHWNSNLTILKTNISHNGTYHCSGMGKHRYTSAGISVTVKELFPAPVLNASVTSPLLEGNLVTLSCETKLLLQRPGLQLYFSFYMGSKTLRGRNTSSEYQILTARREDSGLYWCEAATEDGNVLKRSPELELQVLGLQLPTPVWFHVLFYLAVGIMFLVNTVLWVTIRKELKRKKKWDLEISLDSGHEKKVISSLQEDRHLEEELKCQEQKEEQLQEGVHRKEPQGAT
T2 sequence (P02745 23-245 limits assumed, chain 1 of 3): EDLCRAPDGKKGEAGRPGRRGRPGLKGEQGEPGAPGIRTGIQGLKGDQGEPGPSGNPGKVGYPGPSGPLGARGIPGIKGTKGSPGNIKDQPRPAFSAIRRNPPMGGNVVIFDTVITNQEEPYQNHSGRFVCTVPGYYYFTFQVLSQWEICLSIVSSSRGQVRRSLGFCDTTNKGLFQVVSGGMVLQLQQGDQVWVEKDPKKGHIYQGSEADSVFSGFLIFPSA
T2 sequence (P02746 28-253 limits assumed, chain 2 of 3): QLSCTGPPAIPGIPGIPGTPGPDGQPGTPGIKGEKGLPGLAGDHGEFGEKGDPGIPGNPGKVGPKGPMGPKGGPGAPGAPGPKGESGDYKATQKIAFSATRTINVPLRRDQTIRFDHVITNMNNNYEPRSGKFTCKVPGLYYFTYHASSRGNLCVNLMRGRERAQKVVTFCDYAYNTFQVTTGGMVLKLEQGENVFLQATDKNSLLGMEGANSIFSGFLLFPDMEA
T2 sequence (P02747 29-245 limits assumed, chain 3 of 3): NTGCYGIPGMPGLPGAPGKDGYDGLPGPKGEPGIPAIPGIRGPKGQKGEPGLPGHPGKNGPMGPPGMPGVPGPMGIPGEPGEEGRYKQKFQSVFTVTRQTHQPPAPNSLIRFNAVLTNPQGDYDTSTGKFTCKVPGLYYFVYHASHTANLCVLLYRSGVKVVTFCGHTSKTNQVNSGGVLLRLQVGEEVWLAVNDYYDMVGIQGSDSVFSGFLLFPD

B1: IgG1-CD134-003-HC6LC2-P329R-E345R (antibody)
heavy: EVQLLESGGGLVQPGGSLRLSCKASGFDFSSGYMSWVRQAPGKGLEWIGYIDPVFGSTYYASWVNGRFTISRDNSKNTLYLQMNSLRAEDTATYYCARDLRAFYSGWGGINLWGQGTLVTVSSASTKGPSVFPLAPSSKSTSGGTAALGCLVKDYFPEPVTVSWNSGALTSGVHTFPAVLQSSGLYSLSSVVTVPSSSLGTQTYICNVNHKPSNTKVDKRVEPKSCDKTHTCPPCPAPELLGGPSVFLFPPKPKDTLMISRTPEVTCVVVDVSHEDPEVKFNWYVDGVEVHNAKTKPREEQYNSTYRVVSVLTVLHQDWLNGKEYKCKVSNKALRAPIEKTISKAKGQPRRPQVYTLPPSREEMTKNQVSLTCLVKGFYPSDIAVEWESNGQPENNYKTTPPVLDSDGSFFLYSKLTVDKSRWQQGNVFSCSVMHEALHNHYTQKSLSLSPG
light: AAVLTQSPSSLSASVGDRVTITCQSSQIVVNNNFLSWYQQKPGKAPKLLIYDASNLASGVPDRFSGSGSGTDFTFTISSLQPEDIATYYCLGGYDDDAENAFGGGTKVEIKRTVAAPSVFIFPPSDEQLKSGTASVVCLLNNFYPREAKVQWKVDNALQSGNSQESVTEQDSKDSTYSLSSTLTLSKADYEKHKVYACEVTHQGLSSPVTKSFNRGEC
notes: humanized; human IgG1 with P329R and E345R (Eu numbering), kappa; also called IgG1-CD134-003-HC6LC2-RR
Average EC50 CD4+ T-cell proliferation (17 donors) [1]: 0.013 µg/ml and 0.085 nM | Average EC50 CD8+ T-cell proliferation (17 donors) [1]: 0.017 µg/ml and 0.115 nM | EC50 CD4+ T-cell proliferation, donor 1 [1]: 0.009 µg/ml and 0.057 nM | EC50 CD4+ T-cell proliferation, donor 2 [1]: 0.024 µg/ml and 0.159 nM | EC50 CD4+ T-cell proliferation, donor 3 [1]: 0.012 µg/ml and 0.084 nM | EC50 CD4+ T-cell proliferation, donor 4 [1]: 0.007 µg/ml and 0.048 nM | EC50 CD4+ T-cell proliferation, donor 5 [1]: 0.008 µg/ml and 0.053 nM | EC50 CD4+ T-cell proliferation, donor 6 [1]: 0.006 µg/ml and 0.038 nM | EC50 CD4+ T-cell proliferation, donor 7 [1]: 0.019 µg/ml and 0.129 nM | EC50 CD4+ T-cell proliferation, donor 8 [1]: 0.016 µg/ml and 0.107 nM | EC50 CD4+ T-cell proliferation, donor 9 [1]: 0.007 µg/ml and 0.048 nM | EC50 CD4+ T-cell proliferation, donor 10 [1]: 0.017 µg/ml and 0.111 nM | EC50 CD4+ T-cell proliferation, donor 11 [1]: 0.01 µg/ml and 0.067 nM | EC50 CD4+ T-cell proliferation, donor 12 [1]: 0.009 µg/ml and 0.06 nM | EC50 CD4+ T-cell proliferation, donor 13 [1]: 0.019 µg/ml and 0.125 nM | EC50 CD4+ T-cell proliferation, donor 14 [1]: 0.008 µg/ml and 0.052 nM | EC50 CD4+ T-cell proliferation, donor 15 [1]: 0.02 µg/ml and 0.132 nM | EC50 CD4+ T-cell proliferation, donor 16 [1]: 0.008 µg/ml and 0.053 nM | EC50 CD4+ T-cell proliferation, donor 17 [1]: 0.018 µg/ml and 0.119 nM | EC50 CD8+ T-cell proliferation, donor 1 [1]: 0.028 µg/ml and 0.19 nM | EC50 CD8+ T-cell proliferation, donor 2 [1]: 0.029 µg/ml and 0.195 nM | EC50 CD8+ T-cell proliferation, donor 3 [1]: 0.013 µg/ml and 0.087 nM | EC50 CD8+ T-cell proliferation, donor 4 [1]: 0.007 µg/ml and 0.048 nM | EC50 CD8+ T-cell proliferation, donor 5 [1]: 0.009 µg/ml and 0.058 nM | EC50 CD8+ T-cell proliferation, donor 6 [1]: 0.008 µg/ml and 0.051 nM | EC50 CD8+ T-cell proliferation, donor 7 [1]: 0.041 µg/ml and 0.273 nM | EC50 CD8+ T-cell proliferation, donor 8 [1]: 0.005 µg/ml and 0.033 nM | EC50 CD8+ T-cell proliferation, donor 9 [1]: 0.008 µg/ml and 0.052 nM | EC50 CD8+ T-cell proliferation, donor 10 [1]: 0.016 µg/ml and 0.109 nM | EC50 CD8+ T-cell proliferation, donor 11 [1]: 0.014 µg/ml and 0.095 nM | EC50 CD8+ T-cell proliferation, donor 12 [1]: 0.009 µg/ml and 0.058 nM | EC50 CD8+ T-cell proliferation, donor 13 [1]: 0.052 µg/ml and 0.346 nM | EC50 CD8+ T-cell proliferation, donor 14 [1]: 0.008 µg/ml and 0.054 nM | EC50 CD8+ T-cell proliferation, donor 15 [1]: 0.018 µg/ml and 0.117 nM | EC50 CD8+ T-cell proliferation, donor 16 [1]: 0.011 µg/ml and 0.074 nM | EC50 CD8+ T-cell proliferation, donor 17 [1]: 0.017 µg/ml and 0.116 nM | binding result [2]: no binding (tested: 30 µg/mL antibody) | EC50 [3]: 0.0163 µg/mL | EC50 [4]: 0.159 nM | EC50 [5]: 0.0209 µg/mL | fold change of EC50 in the presence of sOX40L against its absence [6]: ~3 fold | binding result [7]: no binding (tested: 50 µg/mL) | EC50 [8]: 0.0187 µg/mL | EC50 [9]: 0.0273 µg/mL

B2: IgG1-CD134-003 (antibody)
heavy: not shown
light: AAVLTQTPSPVSAAVGGTVTIKCQSSQIVVNNNFLSWYQQKPGQPPKLLIYDASNLASGVPDRFSGSGSGTQFTLTISGVQSDDAATYYCLGGYDDDAENAFGGGTEVVVQRTVAAPSVFIFPPSDEQLKSGTASVVCLLNNFYPREAKVQWKVDNALQSGNSQESVTEQDSKDSTYSLSSTLTLSKADYEKHKVYACEVTHQGLSSPVTKSFNRGEC
notes: rabbit-human chimeric IgG1, wild-type Fc; also called parental chimeric antibody
binding result [10]: binds
